Our source for the Kd values is article PMC6602974 (2019).

Usually Kd stands for a measure of binding affinity in units of concentration. Low readings indicate a tighter complex, high ones a looser complex.

To fix the notation:
B1: CH505 transmitted founder gp120 (domain or fragment)
chain: not shown
B2: DH727.2 monoclonal antibody (IgG1) (antibody, V domains shown)
VH: QVQLVQSGAEVKKPGASVKLSCKASGNTFSIYGISWVRQAPGQGLEWMGGIIPPAGLTNYVQRFQGRVTITADTSTTTVYMELSSLTSEDTAVYYCAIRIGRGFDYWGQGVLVTVSS
VL: DIVMTQSPLSLPVTPGETASISCRSSQSLLDSEDGNTYLEWYLQKPGQSPQALIYEASNRASGVPDRFSGSGSDTDFTLKISRVEAEDVGIYYCMQTIEYPFTFGPGTKVDIK
B3: DH753 monoclonal antibody (IgG1) (antibody, V domains shown)
VH: EVHLVESGGGLVQPGGSLRLSCEVSGLTFSNSWMSWVRQAPGKGLEWVGFIKTKADGGTAAYAESVKGRFTISRDDSKNTVFLQMKSLKTEDTAVYYCQGAVVISHEYIEIWGQGALVTVSS
VL: QSVLTQPPSASEAARKSVTISCSGGSSNIGDDSVSWYQQVPGTAPKLLIYYNDRRASGVSDRFSGSKSGTSASLAINGLQSEDEADYYCAAWDDSLSAYIFGSGTRLTVL

One test has as its target DH796.1. Description: SPR.
In test [1] the target is B1. Description: SPR. (In SPR one partner is held on a chip, and binding of the other changes the refractive index at the surface.)

As to B1, the Kd in the test with DH796.1 was 253 nM.

Take B2: binding in test [1] was characterised by a dissociation constant (Kd) of 10.9 nM.

In test [1], B3 came in with a Kd of 1.2 nM.
